# Laboratory results as given in the nanobody polyreactivity screen of Harvey et al. (2022).
# Assay: yeast display, Sf9 membrane polyspecificity reagent, FACS + sequencing; frameworks hold sequencing errors
# How it was run: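 Nanobodies came from a synthetic yeast display library in Saccharomyces cerevisiae BJ5465, induced with galactose for 36–48 hours and stained for 1 hour at 4 °C with 10% biotinylated, detergent-solubilized Sf9 membrane reagent. Cells were enriched on streptavidin microbeads and then FACS-sorted, with low and high (top ~1%) gates set on anti-HA fluorescence for expression and streptavidin fluorescence for reagent binding. Each polyreactivity label reflects the gate a clone came from. Genes were amplified by colony PCR, sequenced by MiSeq 2 × 250 and filtered by CDR length.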
row,Sequence,polyreactivity (PSR sort gate)
1,QVQLVESGGGLVQAGGSLRLSCAASGFIFGGYAMGWYRQAPGKEREFVAAIRQRGGSTYYADSVKGRFTISRDNAKNTVYLQMNSLKPEDTAVYFCAATVRAVQASVRYGYWGQGTQVTVSS,high polyreactivity
2,QVQLVESGGGLVQAGGSLRLSCAASGLTFKRYVMGWYRQAPGKERELVAAITVSGGNTYYADSVKGRFTISRDNAKNTVYLQMNSLKPEDTAVYYCNADAGAIYYRRYHFYYWGQGTQVTVSS,low polyreactivity
3,QVQLVESGGGLVQAGGSLRLSCAATRSIFFGYAMGWYRQAPGKEREFVAAITASGVRTYYADSVKGRFTISLDNAKNTVYLQMNSLKPEDTAVYYCAARIGTGVLPGRGANSHMDYWGQGTQVTVSS,low polyreactivity
4,QVQLEESGGGLVQAGGTLRLSCAASGSIFYGYAMGWYRKATGKQRDLVAVITDGGGSTYYADSVKGRFTISRDNAKNTVYLQMNSLKPEDTAVYYCAADSWGRYYYSSYSYDYWGQGTQVTVSS,low polyreactivity
5,QVQLVESGGGLVQAGGSLRLSCAASGSILWLNAMGWYRPAPGKERELVADITRGGSTYYADSVKGRFTISRDNAKNTVYLQMNSLKPEDTAVYYCAADAYTGQIPYYYFEHYYWGQGTQVTVSS,high polyreactivity
6,QVQLVESGGGLVQAGGSLRLSCAASGRIFDYYAMGWYRQAPGKERELVAAIDWRGDRTYYADSVKGRFTISRDNAKNTVYLQMNSLKPEDTAVYYCNVLDTRQVGGYRFDYWGQGTQVTVSS,low polyreactivity
7,QVQLEESGGGLVQAGGSLRLSCAASGRIFSRYAMGWYRQAPGKERELVAAITQSGTSTYYADSVKGRFTISRDNAKNTVYLQMTSLKPEDTAVYYCNAYRQYRYDYWGQGTQVTVSS,low polyreactivity
8,QVQLVESGGGLVQAGGSLRLSCAASGSIFYGYDMGWYRQAPGKERELVAAITIGGGTTYYADSVKGRFTISRDNAKNTVYLQMNSLKPEDTAVYYCAAEFYYTIYSNKVGYDYWGQGTQVTVSS,high polyreactivity
9,QLHLVESGGGLVQAGGSLRLSCAASGRSFGLNALGRSRQAHGKERELVAVISFGDGGTYYADSVKGRFTISLDNAKNTVYLQMNSLKPEDTAVYYCATDYQSTSVWGGHFVINPYDYWGQGTKVTVSS,low polyreactivity
10,QVQLVESGGGLVQAGGSLRLSCAASGIIFDYNAMGWYRQAPGKERELVAAITSTDNTNYADSVKGRFTISRDNAKNTVYLQMNSLKPEDTAVYYCNTDYWLSVVYAMDYWGQGTQVTVSS,low polyreactivity
11,QVQLVESGGGLVQAGGSLRISCAASGRIFAGYSMGWYRQAPGKERELVAAIRTRGGSTYYADSVKGRFTISRDKAKNTVYLQMNSLKPEDTEVYYCAATPTWYIWYTYDYWGQGPQVTVSS,high polyreactivity
12,QVQLVETGGGLVQAGGSLRLSCAASGSIFVYHAMGGYRQAPGKETEFVAVISNSGSRTYYADSVKGRFTISRDNAKNTVYLQMNSLKPEDTAVYYCAARYYYFQRAYDYWGQGTQVTVSS,high polyreactivity
13,QVQLVESGGGLVQAGGSLRLSCAASGFTFATYAMGWYRQAPGKKGRLVAAISNAGSTKYADSVKGRFTISRDNAKNTVYLQMNSLKPEDTAVYYCAASTLYASSYYLYDYWGQGTQVTVSS,high polyreactivity
14,QVQLVESGGGLVQAGGSLRLSCAASGSTFGGYALGWDRQAPGKDRELVAAISRSGGRTYYADSVKGRFTISRDNAQNTVYLQMNSLKPEATAVYDCYPYYIASTFDYWGHGTQVTVSS,high polyreactivity
15,QVQLVESGGGLVQAGGSLRLSCPASGSTFRSNVMGWYRQAPGKERELVAAITSSGGSTYYADSVKGRFTISRDNAKNTVYLQMNSLKPEDTAVYYCAAVGYGWDPYKRLVRHSYDSWGQGTQVTVSS,low polyreactivity
16,QVQLVESRGGLVQAGGSLRLSCAASGSTSRTYAMGWYRQAPGKEMELVAAISSSGGRTYYADSVKGRFTISRDNAKNTVYLLMNSLKPEDTAVYYCNARTYSYRGYNYWGQGTQVTVSS,high polyreactivity
17,QVQLVESGGGLVQAGGSLRLSCAASGSTFTPYAMGWYRQVPGKERELVASITIGGSTYADSVKGRFTISRDNSKNTVYLQMNSLKPEDTAVYYCNADWNWYPFLYSRMDYWGQGTQVTVSS,low polyreactivity
